Laboratory results as given in patent US7229960B2, “Methods and compositions for inhibiting GRB7” (University of Vermont and State Agricultural College, priority 2000, dated 2007).
“Also recorded” adds a separate entry of the source. Non-standard residues stand in square brackets, D forms with d. No end group written: not given here. pY = N[C@@H](Cc1ccc(OP(=O)(O)O)cc1)C(=O)O

How the values were obtained:
SH2 domain of human Grb7 = target: T1, SH2 domain of human Grb7 (Homo sapiens, UniProt Q14451); assay: Phage ELISA, peptide-phage binding to Grb7-SH2 domain-GST; details: for Relative binding affinity for Grb7: ELISA binding assay, comparison among G7BPs; for Effect of mutation of G7BP-4 phage clone on binding to Grb7-SH2-GST: phage ELISA, compared with G7BP-4
T1 construct: The SH2 domain of human Grb7 containing a GST fusion tag; made in house; host or cells: E. coli
T1 sequence (Q14451 431-527 limits assumed): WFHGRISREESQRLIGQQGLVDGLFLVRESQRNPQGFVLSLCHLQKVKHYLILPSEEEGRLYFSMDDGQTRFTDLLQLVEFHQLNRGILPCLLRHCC
Source text: The G7BPs were identified using peptide phage display techniques. Two phage display libraries were created and screened that led to the identification of these peptides. The first library was a random peptide phage-display library containing more than 10^7 different cyclic decapeptides flanked at each end by regions of four amino acids, according to the following general motif: X4 C X10 C X4 (X=any amino acid residue, C=cysteine). […] The SH2 domain of human Grb7 containing a GST fusion tag was purified from an E. coli expression system. The random 10mer library was screened using standard phage display methodology (Smith GP. 1985. Science. 228:1315-7). The phage library was added to the target protein which was immobilized on glutathione Sepharose beads (Pharmacia). The unbound phage were removed with a series of washes and the bound phage were eluted by competitive elution with excess glutathione. These bound phage were allowed to infect E. coli in order to amplify the eluted phage. This screening process was repeated two times for a total of three rounds of screening. After the third round of screening, clones from the amplified phage were isolated and sequenced. Thirty-nine clones were characterized and all contained a Y-A/D/E-N motif, where the +2 position was enriched for alanine, aspartic acid, and glutamic acid. The second library, biased for this Y-A/D/E-N motif, was created in the same FuseV phage display system. This biased library contained over 10^6 different clones.
An ELISA binding assay was used to determine whether the peptide-phage bind specifically to the SH2 domain of Grb7, and not to the fusion protein (GST) or other SH2 domains that are homologous to Grb7. The overall methodology of an ELISA is well established. Four different proteins were bound to a polystyrene 96-well plate: Grb7-SH2 domain-GST, GST alone, Grb2-GST and BSA as a non-specific negative control. Preparations of the concentrated Grb7 peptide-phage clones were allowed to bind to these proteins. Non-specific binding was blocked by casein. Binding of phage was detected using an anti-phage antibody conjugated to horseradish peroxidase.
Mutational analysis of G7BP-4 has been conducted to determine which amino acid residues are important in peptide binding to Grb7-SH2 as well as to determine the size restriction of these peptides. The mutations for G7BP-4 include the following: (1) eliminating the 4 amino acids flanking the cysteines ([…], SEQ ID NO:35) referred to as G7BP4-No Arms (NA), (2) mutating the cysteines to serine residues ([…], SEQ ID NO:36), which are structurally very similar, referred to as G7BP4-Ser, (3) mutating the cysteines to valine residues ([…], SEQ ID NO:37), which is similar in structure and charge, and (4) a combination where the cysteines were mutated to serines and the 4 flanking amino acids were removed ([…], SEQ ID NO:38), referred to as G7BP-No Arms(NA)-Ser. The substitutions of valine and serine for cysteine will eliminate the peptides ability to form a disulfide loop. The mutations were created as a DNA oligo, ligated into the fuse5 vector, and expressed as a peptide-phage. The resultant phage were tested in a phage ELISA for their ability to bind to Grb7-SH2-GST. […] Variants of the G7BP-1, G7BP-2, G7BP-3, G7BP-5, G7BP-6 and G7BP-7 which similarly lack the 4 tracking amino acids on both ends can also bind specifically to Grb7. These peptides have the following amino acid sequences respectively: […]

Grb7-SH2-GST = Grb7-SH2-GST (Homo sapiens, UniProt Q14451); assay: Competition ELISA, free synthetic peptide versus Grb7 binding peptide-phage on Grb7-SH2-GST; details: for Inhibition of G7-8NA peptide-phage binding to Grb7-SH2 / Inhibition of G7-18 peptide-phage binding to Grb7-SH2: free synthetic peptide at 1, 10, 100 uM
Grb7-SH2-GST, sequence (Q14451 431-527 limits assumed): as above
Source text: The G7-18 (FIG. 5A) and G7-8NA (FIG. 5B) peptide-phage were concentrated with standard polyethylene glycol precipitation methods and added to each well (1×10^6 phage/well) in the presence of synthetic peptides or without (control). G7-18 peptide-phage competitors were G7-18, G7-18NATE and G7-8 free synthetic peptides (FIG. 5A). G7-8NA peptide-phage competitors were G7-8, G7-8NA and G7-8NATE free synthetic peptides (FIG. 5B). The synthetic peptides were mixed at different concentrations (1, 10, 100 uM) with peptide-phage before adding to Grb7-SH2-GST. Unbound phage were washed away with Tween-TBS buffer and bound phage were detected with anti-M13-horseradish peroxidase (Amersham-Pharmacia Biotech) and ABTS substrate (Calbiochem). Phage was detected by anti-M13-HRP antibody conjugate and detected using ABTS substrate. Plates were read at OD405.

[1] = target: association of Grb7 with the ErbB family of receptors (Homo sapiens, UniProt Q14451); assay: Co-immunoprecipitation of Grb7 with tyrosine phosphorylated ErbB family in heregulin-stimulated SKBR3 cell lysate; details: for Inhibition of association of Grb7 with the ErbB family: heregulin β1 stimulated SKBR3 lysate, anti-Grb7 IP, anti-phosphotyrosine at 185 kDa, densitometry
association of Grb7 with the ErbB family of receptors, sequence (Q14451 whole entry): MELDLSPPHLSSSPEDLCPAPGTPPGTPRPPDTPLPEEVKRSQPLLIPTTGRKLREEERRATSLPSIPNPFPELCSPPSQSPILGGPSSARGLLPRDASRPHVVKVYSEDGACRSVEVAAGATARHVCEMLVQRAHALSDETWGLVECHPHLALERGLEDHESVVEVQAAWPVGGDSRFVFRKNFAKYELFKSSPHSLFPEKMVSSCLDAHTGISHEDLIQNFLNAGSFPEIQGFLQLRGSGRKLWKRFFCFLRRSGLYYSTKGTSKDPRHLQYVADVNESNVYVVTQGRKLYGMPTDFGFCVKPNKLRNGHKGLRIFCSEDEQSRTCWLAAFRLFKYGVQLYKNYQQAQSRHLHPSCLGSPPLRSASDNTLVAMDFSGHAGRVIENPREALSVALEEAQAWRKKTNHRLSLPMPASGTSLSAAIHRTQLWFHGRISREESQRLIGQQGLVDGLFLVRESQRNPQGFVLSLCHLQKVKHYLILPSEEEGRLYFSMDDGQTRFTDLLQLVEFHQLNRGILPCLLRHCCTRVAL
Protocol: Two of the Grb7-binding peptides were tested for their ability to inhibit Grb7 from binding its known target molecules, such as ErbB2 and ErbB3, in whole cell extracts. Whole cell extracts were made from the cell line SKBR3, which overexpresses Grb7, ErbB2 and ErbB3. […] The immunoprecipitations were carried out with anti-Grb7 followed by western blot. The western blot was divided so the top half was incubated with anti-phosphotyrosine to detect the associated ErbB family that migrates at 185 kDa. The bottom half of western blot was incubated with anti-Grb7 as a loading control.

Substance: C VFWG YAN DWL C (CVFGYANDWLC; Variant of G7BP-4) [G7BP-4NA]
- Relative binding affinity for Grb7 (SH2 domain of human Grb7): lesser affinity
- Effect of mutation of G7BP-4 phage clone on binding to Grb7-SH2-GST (SH2 domain of human Grb7): did not effect its ability to bind
- Inhibition of G7-8NA peptide-phage binding to Grb7-SH2 (Grb7-SH2-GST): inhibition

Substance: DpYVPML (D[pY]VPML) [N1480, reference compound]
- Inhibition of Grb7 binding peptide-phage binding to Grb7-SH2 (Grb7-SH2-GST; phage clone not specified, data not shown): No inhibition

Substance: GVSN C VFWG YAN DWL C SDYS (GVSNCVFWGYANDWLCSDYS; Peptide sequence from FuseV Phage Display) [G7BP-4]
- Relative binding affinity for Grb7 (SH2 domain of human Grb7): higher affinity
- Inhibition of G7-8NA peptide-phage binding to Grb7-SH2 (Grb7-SH2-GST): inhibition
- Inhibition of G7-18 peptide-phage binding to Grb7-SH2 (Grb7-SH2-GST; listed as G7-8): inhibits; also recorded: inhibition

Substance: GVSNSVFGYANDWLSSDYS (Variant of G7BP-4) [G7BP4-Ser]
- Effect of mutation of G7BP-4 phage clone on binding to Grb7-SH2-GST (SH2 domain of human Grb7): reducing the binding capacity

Substance: GVSNVVFGYANDWLVSDYS (Variant of G7BP-4) [SEQ ID NO:37, G7BP-4 with cysteines mutated to valine]
- Effect of mutation of G7BP-4 phage clone on binding to Grb7-SH2-GST (SH2 domain of human Grb7): reducing the binding capacity

Substance: PQPEYVNQPD (Non-phosphorylated peptide which mimics ErbB2 site) [Y 139]
- Inhibition of association of Grb7 with the ErbB family [1]: showed no competition

Substance: RSTL C WFEG YDN TFP C KYFR (RSTLCWFEGYDNTFPCKYFR; Peptide sequence from FuseV Phage Display) [G7BP-5]
- Inhibition of G7-18 peptide-phage binding to Grb7-SH2 (Grb7-SH2-GST): inhibition
- Level of inhibition of Grb7 co-immunoprecipitation with the ErbB family ([1]; 100 uM, data not shown): same levels of inhibition

Substance: SVFGYANDWLS (Variant of G7BP-4) [G7BP-No Arms(NA)-Ser]
- Effect of mutation of G7BP-4 phage clone on binding to Grb7-SH2-GST (SH2 domain of human Grb7): reducing the binding capacity

Substance: Y1139 peptide: the Y1139 ErbB2-site peptide when it is phosphorylated (PQPEYVNQPD; not fully specified (residue 5))
- Inhibition of association of Grb7 with the ErbB family [1]: does compete

Substance: ^VFWG YAN DWL C^ (VFWGYANDWLC; cyclised thioether; Variant G7BP-4NATE)
- Inhibition of G7-8NA peptide-phage binding to Grb7-SH2 (Grb7-SH2-GST; listed as G7-8NATE): inhibition; also recorded: to a lesser extent than seen with the disulfide containing peptides
